Measurements published in KR20180081029A (dated 2018).

T1: CD86 expressed on the cell surface of Raji B cells (human, UniProt P42081 24-329)
T1 construct: whole, on cells; Raji cells carry both CD80 and CD86; also called B7.2
T1 sequence (looked up): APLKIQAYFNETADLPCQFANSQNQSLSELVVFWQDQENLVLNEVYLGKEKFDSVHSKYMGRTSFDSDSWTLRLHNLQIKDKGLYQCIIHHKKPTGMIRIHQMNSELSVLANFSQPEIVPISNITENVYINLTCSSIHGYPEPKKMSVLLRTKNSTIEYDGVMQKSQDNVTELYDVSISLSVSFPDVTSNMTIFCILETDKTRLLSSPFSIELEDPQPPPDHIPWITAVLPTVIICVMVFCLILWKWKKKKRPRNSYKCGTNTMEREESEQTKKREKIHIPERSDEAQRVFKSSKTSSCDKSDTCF

T2: CD86 antigen (R&D systems, Cat. #. 141-B2-100) (human, UniProt P42081 26-245)
T2 construct: Bought reagent
T2 sequence (looked up): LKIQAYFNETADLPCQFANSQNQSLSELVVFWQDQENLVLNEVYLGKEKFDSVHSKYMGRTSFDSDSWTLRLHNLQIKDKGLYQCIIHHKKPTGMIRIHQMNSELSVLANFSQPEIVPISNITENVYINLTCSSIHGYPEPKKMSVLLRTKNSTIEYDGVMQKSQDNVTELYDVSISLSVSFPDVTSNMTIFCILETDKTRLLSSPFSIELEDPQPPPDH

B1: 3A2 (CD86) human antibody, IgG form (antibody, V domains shown)
VH: EVQLLESGGGLVQPGGSLRLSCAASGFTFSYYSMSWVRQAPGKGLEWVSSISYGPGYTYYADSVKGRFTISRDNSKNTLYLQMNSLRAEDTAVYYCARYYYYGYYYGYYGAFDYWGQGTLVTVSS
VL: EIVLTQSPGTLSLSPGERATLSCRASQSVSSSYLAWYQQKPGQAPRLLIYGASSRATGIPDRFSGSGSGTDFTLTISRLEPEDFAVYYCQQGYYSNSTFGQGTKVEIK
notes: Converted to IgG, expressed in 293F cells
B2: 3A2 (CD86), Fab clone selected from the Rz human antibody library (Fab, V domains shown)
VH: B1 VH
VL: B1 VL
notes: Fab (on phage in the panning, soluble from E. coli in the ELISA, detected with anti-HA-HRP, so it carries an HA tag)

Legend:
[1] = molecular target: T1, CD86 expressed on the cell surface of …; test: FACS on Raji B cells (figure legend)
[2] = molecular target: T2, CD86 antigen (R&D systems, Cat. #. …); test: phage bio-panning of a Fab library on the bought antigen, binding checked by Fab ELISA (anti-HA-HRP)

| Binder | binding result [1] | binding result [2] |
| --- | --- | --- |
| B1 | binds | – |
| B2 | – | binds |
